Ends that are not written are not given here.
Legend:
[1] = system: vesicular stomatitis virus (VSV); format: cell-based
vaccinia virus [2] = format: in vivo, mice (C57BL/6); conditions: i.n. infection; peptides 200 μg or murine IFNα1 2,000 U i.p. for six consecutive days; FIG. 12
[3] = Body weight of mice under IFNα1 or lipo-peptide (FIG. 13); conditions: 5×10^3 U/mouse i.p. on alternate days (peptide 100 μg), day 11 difference p<0.05
vaccinia virus [4] = format: cell-based
[5] = system: experimental allergic encephalomyelitis (EAE) in SJL/J mice; experiment: Relapsing/remitting EAE in SJL/J mice immunized with MBP; format: in vivo; conditions: 15 μg/mouse i.p. every other day from day 12 post-immunization with MBP; FIG. 6C
EMC virus = format: cell-based, encephalomyocarditis (EMC) virus
[6] = IFN toxicity in vivo: body weight (FIG. 7); conditions: 2,000 U per mouse of IFN mimetic I.P. on alternate days
lymphocytes = experiment: IFN toxicity in vivo: lymphocyte count on blood smears (Table 4); conditions: day 11, i.p. alternate days for ten days, IFN mimetics 2 × 10^3 U in 200 μg per mouse, IFNβ 10^3 U/mouse; for % Reduction (lymphocytes): versus PBS

**Q.** Which “antiviral activity against vesicular stomatitis virus (VSV)” value (“antiviral activity … (VSV)” for short) [1] does the source give for “lipo-IFNτ(156-195) (EKGYSDCAWEIVRVEMMRALTSSTTLQKRLTKTGGDLNSP; also: lipid attached)” here?
**A.** The value was “showed antiviral activity”.

**Q.** For “lipo-IFNβ(150-187) (ILHYLKAKEYSHCAWTIVRVEILRNFYFINRLTGYLRN; also: lipidated; UniProt P01574 150-187, looked up, fragment)”, which “antiviral activity … (VSV)” value [1] is on record?
**A.** The value was “showed antiviral activity”.

**Q.** Which “antiviral activity … (VSV)” value [1] does the source give for “lipo-IFNα1(152-189) (LYLTEKKYSPCAWEVVRAEIMRSLSLSTNLQERLRRKE; also: lipid attached; listed as Homo sapiens)” here?
**A.** Its value is “showed antiviral activity”.

**Q.** And the “protection against vaccinia virus lethal infection (survival)” value (vaccinia virus [2])?
**A.** Its value is “inhibited vaccinia virus lethal infection of mice”.

**Q.** And the weight loss [3]?
**A.** The weight loss was “not seen”.

B1: IFNα1 (protein, UniProt P01562 24-189, looked up)
Interferon alpha-1/13: CDLPETHSLDNRRTLMLLAQMSRISPSSCLMDRHDFGFPQEEFDGNQFQKAPAISVLHELIQQIFNLFTTKDSSAAWDEDLLDKFCTELYQQLNDLEACVMQEERVGETPLMNADSILAVKKYFRRITLYLTEKKYSPCAWEVVRAEIMRSLSLSTNLQERLRRKE
**Q.** Which “protection against vaccinia virus (VV) infection” value (vaccinia virus [4]) does the source give for B1 here?
**A.** The value was “did not protect”.

**Q.** What about the “protection against vaccinia virus lethal infection (survival)” value (vaccinia virus [2]) of the same molecule?
**A.** The value was “ineffective”.

**Q.** What about the weight loss [3] of the same molecule?
**A.** The weight loss was “weight loss seen”.

B2: IFNα1(69-189) (protein, listed as Homo sapiens)
chain: NQFQKAPAISVLHELIQQIFNLFTTKDSSAAWDEDLLDKFCTELYQQLNDLEACVMQEERVGETPLMNADSILAVKKYFRRITLYLTEKKYSPCAWEVVRAEIMRSLSLSTNLQERLRRKE
**Q.** With B2 as the molecule, how does the “therapeutic efficacy in EAE (mean daily severity of disease)” value [5] read?
**A.** Its value is “developed paraplegia”.

B3: IFNβ(100-187)R9 (protein)
chain: RRRRRRRRRWNETIVENLLANVYHQINHLKTVLEEKLEKEDFTRGKLMSSLHLKRYYGRILHYLKAKEYSHCAWTIVRVEILRNFYFINRLTGYLRN
**Q.** With B3 as the molecule, how does the “antiviral activity against EMC virus” value (EMC virus) read?
**A.** The value was “possessed antiviral activity”.

**Q.** And the body weight change [6]?
**A.** Its body weight change is “gained weight”.

**Q.** What about the “Lymphocytes (%)” value (lymphocytes) of the same molecule?
**A.** Its value is 72 ± 5%.

**Q.** What about the “% Reduction (lymphocytes)” value (lymphocytes) of the same molecule?
**A.** Its value is 9%.

B4: IFNα1(69-189)R9 (protein)
chain: RRRRRRRRRNQFQKAPAISVLHELIQQIFNLFTTKDSSAAWDEDLLDKFCTELYQQLNDLEACVMQEERVGETPLMNADSILAVKKYFRRITLYLTEKKYSPCAWEVVRAEIMRSLSLSTNLQERLRRKE
**Q.** For B4, which “antiviral activity against EMC virus” value (EMC virus) is on record?
**A.** The value was “possessed antiviral activity”.

**Q.** And the “therapeutic efficacy in EAE (mean daily severity of disease)” value [5]?
**A.** Its value is “essentially complete therapeutic efficacy”.

**Q.** And the body weight change [6]?
**A.** Its body weight change is “gained weight”.

**Q.** What about the “Lymphocytes (%)” value (lymphocytes) of the same molecule?
**A.** The value was 75 ± 3%.

**Q.** What about the “% Reduction (lymphocytes)” value (lymphocytes) of the same molecule?
**A.** The value was 4%.

— patent US9951111B2, “Type I interferon mimetics as therapeutics for cancer, viral infections, and multiple sclerosis” (priority 2011, dated 2018)
